The chains are these.
B1: VH D52Y (77BIT) (Fab, V domains shown)
VH: EVQLVQSGAEVKKPGASVKVSCKASGYTFTSYWMHWVRQAPGQGLEWMGRIYPQSGGIKYAQKFQGRATLTVDTSTSTAYMELSRLRSDDTAVYYCARWDYGGYFDVWGQGTLVTVSS
VL: DIQMTQSPSSLSASVGDRVTITCRASQDITNYLNWYQQKPGKAVKLLIYYTSRLHSGVPSRFSGSGSGTDYTLTISSLQPEDFATYFCQQGDTLPWTFGQGTKLEIKR
B2: VH G98Y (65BIT) (Fab, V domains shown)
VH: EVQLVQSGAEVKKPGASVKVSCKASGYTFTSYWMHWVRQAPGQGLEWMGRIDPQSGGIKYAQKFQGRATLTVDTSTSTAYMELSRLRSDDTAVYYCARWDYYGYFDVWGQGTLVTVSS
VL: DIQMTQSPSSLSASVGDRVTITCRASQDITNYLNWYQQKPGKAVKLLIYYTSRLHSGVPSRFSGSGSGTDYTLTISSLQPEDFATYFCQQGDTLPWTFGQGTKLEIKR
B3: VH D96Y (64BIT) (Fab, V domains shown)
VH: EVQLVQSGAEVKKPGASVKVSCKASGYTFTSYWMHWVRQAPGQGLEWMGRIDPQSGGIKYAQKFQGRATLTVDTSTSTAYMELSRLRSDDTAVYYCARWYYGGYFDVWGQGTLVTVSS
VL: DIQMTQSPSSLSASVGDRVTITCRASQDITNYLNWYQQKPGKAVKLLIYYTSRLHSGVPSRFSGSGSGTDYTLTISSLQPEDFATYFCQQGDTLPWTFGQGTKLEIKR
B4: VH G56Y (82BIT) (Fab, V domains shown)
VH: EVQLVQSGAEVKKPGASVKVSCKASGYTFTSYWMHWVRQAPGQGLEWMGRIDPQSGYIKYAQKFQGRATLTVDTSTSTAYMELSRLRSDDTAVYYCARWDYGGYFDVWGQGTLVTVSS
VL: DIQMTQSPSSLSASVGDRVTITCRASQDITNYLNWYQQKPGKAVKLLIYYTSRLHSGVPSRFSGSGSGTDYTLTISSLQPEDFATYFCQQGDTLPWTFGQGTKLEIKR
B5: VH F29Y (68BIT) (Fab, V domains shown)
VH: EVQLVQSGAEVKKPGASVKVSCKASGYTYTSYWMHWVRQAPGQGLEWMGRIDPQSGGIKYAQKFQGRATLTVDTSTSTAYMELSRLRSDDTAVYYCARWDYGGYFDVWGQGTLVTVSS
VL: DIQMTQSPSSLSASVGDRVTITCRASQDITNYLNWYQQKPGKAVKLLIYYTSRLHSGVPSRFSGSGSGTDYTLTISSLQPEDFATYFCQQGDTLPWTFGQGTKLEIKR
B6: VH G55Y (81BIT) (Fab, V domains shown)
VH: EVQLVQSGAEVKKPGASVKVSCKASGYTFTSYWMHWVRQAPGQGLEWMGRIDPQSYGIKYAQKFQGRATLTVDTSTSTAYMELSRLRSDDTAVYYCARWDYGGYFDVWGQGTLVTVSS
VL: DIQMTQSPSSLSASVGDRVTITCRASQDITNYLNWYQQKPGKAVKLLIYYTSRLHSGVPSRFSGSGSGTDYTLTISSLQPEDFATYFCQQGDTLPWTFGQGTKLEIKR
B7: VH G99Y (66BIT) (Fab, V domains shown)
VH: EVQLVQSGAEVKKPGASVKVSCKASGYTFTSYWMHWVRQAPGQGLEWMGRIDPQSGGIKYAQKFQGRATLTVDTSTSTAYMELSRLRSDDTAVYYCARWDYGYYFDVWGQGTLVTVSS
VL: DIQMTQSPSSLSASVGDRVTITCRASQDITNYLNWYQQKPGKAVKLLIYYTSRLHSGVPSRFSGSGSGTDYTLTISSLQPEDFATYFCQQGDTLPWTFGQGTKLEIKR

T1 sequence (chain, as listed by the source limits assumed): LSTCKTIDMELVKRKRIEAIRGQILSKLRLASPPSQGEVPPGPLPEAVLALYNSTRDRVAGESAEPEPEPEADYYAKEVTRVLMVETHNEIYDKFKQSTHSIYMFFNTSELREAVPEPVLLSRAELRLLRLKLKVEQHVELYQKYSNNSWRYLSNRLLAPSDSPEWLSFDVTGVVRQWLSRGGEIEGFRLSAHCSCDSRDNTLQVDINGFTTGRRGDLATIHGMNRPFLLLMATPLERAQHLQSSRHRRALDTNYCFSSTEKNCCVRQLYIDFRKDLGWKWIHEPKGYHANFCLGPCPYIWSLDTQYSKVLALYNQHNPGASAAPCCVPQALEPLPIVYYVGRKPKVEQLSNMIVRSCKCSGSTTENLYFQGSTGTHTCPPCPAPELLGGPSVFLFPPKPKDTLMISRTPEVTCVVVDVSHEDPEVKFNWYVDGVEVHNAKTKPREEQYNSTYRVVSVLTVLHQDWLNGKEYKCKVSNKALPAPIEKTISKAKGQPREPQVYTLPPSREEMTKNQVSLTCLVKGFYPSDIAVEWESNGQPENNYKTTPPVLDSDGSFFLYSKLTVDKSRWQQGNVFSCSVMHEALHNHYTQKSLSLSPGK

The assay addresses T1, human LAP-TGFB1 Fc fusion (human).
T1 construct: also called human LAP-TGFβ1-Fc; human LAP-TGFβ-Fc isoform 1
In words: BLI off-rate screen. As for the experimental part: The Fab mutants including a positive control, 20E6 Fab, and a negative control Fab (Molecular Innovations, catalog HU-FAB-4510) were diluted to 200 nM in assay buffer and loaded to FAB2G sensors for 180 seconds followed by a one-hour incubation at room temperature in assay buffer to equilibrate the tips. The Fab loaded sensors were assessed for binding with 100 nM human LAP-TGFβ for 180 seconds followed by a 180 second dissociation phase in assay buffer on a ForteBio HTX (software version 9.0.0.66). Non-specific binding to the negative control Fab was subtracted and the binding sensorgrams were aligned to the start of the association phase on the X and Y axis. The Fab binding was fit with the 1:1 binding model, dissociation phase only, with local fitting using ForteBio Data Analysis 9.0 software.
Twenty-three variants containing a single tyrosine substitution in the light chain CDRs (at one of amino acid positions 24-31, 33, 34, 51-56, and 89-95 according to Kabat numbering scheme) and 21 similar heavy chain CDR variants (at amino acids positions 28-31, 33-35, 50-58 including 52a, 95, 96, 98, and 99 according to Kabat numbering scheme) were generated according to FIG. 1 and listed in Table 6 and their interactions with human LAP-TGFb1 were analyzed by ForteBio interferometry. […] In those sequences the VL is correct, even though these sequences are from the heavy chain. Thus, the VL_X ##Y refers to the position of the tyrosine mutation within the antibody, regardless of whether the sequence is a heavy or light chain.
On to B1, for which the Binding response was 0.042 nm and the binding result was “no binding (tested: 100 nM antigen)”.

Take B2: the Binding response was determined as 0.037 nm and the binding result is “no binding (tested: 100 nM antigen)”.

For the molecule B3, the Binding response worked out at 0.102 nm, the Fold change turned out to be 0.6 fold and the dissociation rate constant (koff) (usually the rate constant with which the complex falls apart) came out at 0.0746 s⁻¹.

Take B4: the Binding response was 0.569 nm, the Fold change was found to be 1 fold and the dissociation rate constant (koff) came to 0.0436 s⁻¹.

Regarding B5, the Binding response is 0.597 nm, the Fold change amounted to 1.3 fold and the koff was found to be 0.0336 s⁻¹.

Regarding B6, the Binding response came out at 0.542 nm, the Fold change is 1.2 fold and the off-rate (koff) stood at 0.036 s⁻¹.

B7 had a Binding response of 0.055 nm, a Fold change of 0.9 fold and a koff of 0.0476 s⁻¹.

The values are drawn from patent US20230272056A1 (Merck Sharp & Dohme, published 2023).
